Positions count from the first letter of the chain named.
Key:
Assay in all cases: EMSA
Y564A-RECQ1T1 = biological target: T1, Y564A-RECQ1T1 (human, UniProt P46063 49-616, Y564A)
T1 sequence: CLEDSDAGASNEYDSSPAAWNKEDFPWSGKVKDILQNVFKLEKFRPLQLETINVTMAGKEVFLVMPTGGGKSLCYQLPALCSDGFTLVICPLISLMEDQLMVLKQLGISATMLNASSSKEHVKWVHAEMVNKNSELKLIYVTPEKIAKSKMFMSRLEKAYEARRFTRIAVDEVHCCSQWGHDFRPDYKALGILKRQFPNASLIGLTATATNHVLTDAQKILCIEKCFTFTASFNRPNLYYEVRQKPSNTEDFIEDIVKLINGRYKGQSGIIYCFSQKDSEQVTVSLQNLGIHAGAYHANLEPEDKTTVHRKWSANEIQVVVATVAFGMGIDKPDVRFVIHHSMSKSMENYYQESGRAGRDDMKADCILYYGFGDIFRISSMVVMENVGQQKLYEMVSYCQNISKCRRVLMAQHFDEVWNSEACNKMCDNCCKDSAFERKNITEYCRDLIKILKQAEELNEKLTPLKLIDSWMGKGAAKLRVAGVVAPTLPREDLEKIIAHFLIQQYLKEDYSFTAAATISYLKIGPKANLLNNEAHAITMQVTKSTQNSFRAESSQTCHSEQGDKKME

W227A-F231A-RECQ1T1 = W227A-F231A-RECQ1T1 (human, UniProt P46063 49-616, W227A;F231A)
[1] = biological target: T2, Y559A-S560A-F561A-RECQ1T1 (human, UniProt P46063 49-616, Y559A;S560A;F561A)
T2 sequence: T1 sequence with Y511A, S512A, F513A, A516Y

RECQ1T1 (RECQ1 49-616) = RECQ1T1 (RECQ1 49-616) (human, UniProt P46063 49-616)
[2] = biological target: T3, Δ(F561-T562-T566)-RECQ1T1 (human, UniProt P46063 49-616, del561-562;del566-566)
T3 sequence: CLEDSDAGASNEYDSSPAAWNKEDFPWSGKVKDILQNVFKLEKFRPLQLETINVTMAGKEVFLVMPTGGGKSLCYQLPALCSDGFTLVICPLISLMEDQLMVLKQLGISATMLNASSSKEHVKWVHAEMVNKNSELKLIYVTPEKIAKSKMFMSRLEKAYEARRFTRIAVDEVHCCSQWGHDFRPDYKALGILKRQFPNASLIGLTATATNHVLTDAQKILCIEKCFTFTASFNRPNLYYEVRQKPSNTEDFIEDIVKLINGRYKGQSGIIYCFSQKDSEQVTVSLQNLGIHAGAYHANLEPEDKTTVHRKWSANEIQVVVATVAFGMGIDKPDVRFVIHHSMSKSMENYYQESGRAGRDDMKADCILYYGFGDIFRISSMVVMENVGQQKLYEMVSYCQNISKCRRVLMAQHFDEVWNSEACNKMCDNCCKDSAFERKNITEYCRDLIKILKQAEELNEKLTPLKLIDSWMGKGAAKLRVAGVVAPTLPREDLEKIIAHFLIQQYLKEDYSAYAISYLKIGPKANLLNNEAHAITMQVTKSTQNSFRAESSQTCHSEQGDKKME

Measured: binding result

B1: X12 Holliday junction (structured_DNA)
DNA 1: GACGCTGCCGAATTCTGGCTTGCTAGGACATCTTTGCCCACGTTGACCCG
DNA 2: CGGGTCAACGTGGGCAAAGATGTCCTAGCAATGTAATCGTCTATGACGTC
DNA 3: GACGTCATAGACGATTACATTGCTAGGACATGCTGTCTAGAGACTATCGC
DNA 4: GCGATAGTCTCTAGACAGCATGTCCTAGCAAGCCAGAATTCGGCAGCGTC
no binding: all assays above

From publication PMC3061051 (Nucleic Acids Research, 2010)
